One may read the Km as the concentration of substrate that gives half-maximal velocity. A word on the kcat: it is the number of substrate molecules converted per active site and unit of time at saturation. A word on the kcat/Km: it is the second-order rate constant that governs catalysis at low substrate concentration.

The values that follow come from paper PMC5730197, “Evolution-guided adaptation of an adenylation domain substrate specificity to an unusual amino acid” (PLoS ONE, 2017).

Common to all, as to assay: purified protein
What all share (type): biochemical, Streptomyces lincolnensis
Holding throughout (conditions): amino acid-dependent exchange of 32P from PPi into ATP

Substrate in data set [1]: CCCC[C@H]1CN[C@H](C(=O)O)C1
Substrate in data set [2]: CC[C@H]1CN[C@H](C(=O)O)C1
Substrate in data set [3]: CCC[C@H]1CN[C@H](C(=O)O)C1
Substrate in data set [4]: CCCCC[C@H]1CN[C@H](C(=O)O)C1

B1: LmbC (Streptomyces lincolnensis) (protein)
chain: MSSSVRLSTLLASAAEARPEAPAVLGETRLPVTYGELAARAGGIQAALAGLGVRAGDRVALLSGRTDADAVAAVHAILAAGAVYVPLDAASPPARWASVSRVCAPTAVVGERALLDRFAAAVPGPRRLALPSDGDELPAGRLDPVRSDGTDVAYLLTTSGSTGVPKCVAHTGAGAVAFLEWMVGAFPVGGDDVFACHAPLHFDVSVASVLGSALGGAALAPVPRELSGFPVELATWIAERAVTVWLSVPYPLARLSGLEERAARERLATLRTVVFAGDVFPHQRLAALMRCAPGARFLNIYGPTETNGCTYEVVDAPPAGPVPIGRPVECAECWVEDDDGRPVDAVGSVGELVVAGPTVAAGYWGVEGHGAERFRTGETCPGGRAYATGDQVRVLPGGRYAFLGRMDNMIKMRGQRFELEEVENAVRLAPGVEDCCVVKVDVRDDHSRLLAVVVGPGAGDPRTLREHCLTRLPSWAVPHRFLTAAALPLGSTGKVDRRALREELVTRGE
notes: full-length stand-alone A-domain, C-terminal His8 tag kept, pET42b (plmbC1), E. coli BL21(DE3)
Regarding B1, the Km worked out at 120 ± 6 µM in the data set “purified protein [1]”, 6400 ± 300 µM in “purified protein [2]”, 280 ± 30 µM in “purified protein [3]” and 60 ± 3 µM in the data set “purified protein [4]”. Besides, the kcat in the data set “purified protein [3]” turned out to be 0.55 ± 0.0167 s⁻¹; in “purified protein [4]” it was 0.917 ± 0.0133 s⁻¹. Also, the specificity constant (kcat/Km) came out at 2000 M⁻¹ s⁻¹ in the data set “purified protein [3]” and 15300 M⁻¹ s⁻¹ in the data set “purified protein [4]”.
